Assay [1] concerns the target H3(1-28) with acetylated K18 (UniProt P68431 2-29, acetyl-lysine at K18). In words: ITC.
For assay [2], the target named is H3(1-28)K9me3K18ac histone peptide (UniProt P68431 2-29, trimethyl-lysine at K9; acetyl-lysine at K18). In words: ITC. In general terms: In ITC the heat of successive injections is recorded.

B1: TRIM33 PHD-Bromo cassette (domain or fragment)
chain: DDDPNEDWCAVCQNGGDLLCCEKCPKVFHLTCHVPTLLSFPSGDWICTFCRDIGKPEVEYDCDNLQHSKKGKTAQGLSPVDQRKCERLLLYLYCHELSIEFQEPVPASIPNYYKIIKKPMDLSTVKKKLQKKHSQHYQIPDDFVADVRLIFKNCERFNEMMKVVQVYADTQEINLKADSEVAQAGKAVALYFEDKLTEIYSDRTFA
For the molecule B1, the “fold enhancement of binding over unmodified H3(1-28)” value in assay [1] worked out at 2.3 fold; in assay [2] it was 3.5 fold.

(Values after PMC3582033 (Cell, 2011).)
